Laboratory results: patent publication US20180112194A1, “MUTANT HUMAN DEOXYCYTIDINE KINASE” (Centre National De La Recherche Scientifique, priority 2015, published 2018)
Like-named read-outs stand apart in the source and are kept apart here.

Tests used:
[1] = target: T1, human dCK (Homo sapiens, UniProt P27707, E171K/E247K/L249M); conditions: cited from earlier work
T1 construct: His tag (C, cleaved yes); made in house; host or cells: E. coli BL21 DE3 pLysE (pET14b)

[2] = test system: Messa10K cells; conditions: for efficiency of SIN vectors versus wt vectors / plateau of maximum mortality: gemcitabine; for efficiency of SIN vectors versus wt vectors: Messa 10K, data not shown
Procedure: Methods to measure sensitivity of a cell, such as a eukaryotic cell are known to the skilled in the art. In one example, cells were transduced with a vector comprising for example the mutant “M36” or the wild-type hdCK. Therefore, 1×10^6 cells were contacted with 1 ml of 1:5 diluted viral vectors rescued from the isolated clones. Transduced cells were selected, for example, by adding puromycin 24 h after transduction using 0.6 μg/ml to HEK-293T cells, 0.6 μg/ml to HEK-293T-CD4^+ cells, 0.5 μg/ml to Messa10K cells. The transduced cells were then for example seeded at 5,000 cells per well in a 96-well plate and grown overnight at 37° C. Typically, two rows were used for each population. 12 h after seeding, increasing concentrations of for example gemcitabine (0-400 nM or […]), or araC (0-10 mM) were added to each well and left in culture for further 72 h. Cell viability was measured by MTT test (CellTiter 96 Non-Radioactive Cell Proliferation Assay, Promega) and the number of living cells in each well was evaluated by measuring the OD at 570 nm. For each population, the fraction of living cells was calculated as OD570 concentration X Gem/OD570 concentration 0 Gem, to estimate the sensitivity of the population to the prodrug.
Tests of sensitivity to anticancer drugs. Cells were seeded at 5000 cells per well in a 96-well plate and grown overnight at 37° C. Two rows were used for each population. 12 h after seeding, increasing concentrations of Gemcitabine (0-400 nM or 0-100 μM), or AraC (0-10 mM) were added to each well and left in culture for further 72 h. Cell viability was measured by MTT test (CellTiter 96 Non-Radioactive Cell Proliferation Assay, Promega) and the number of living cells in each well was evaluated by measuring the OD at 570 nm. For each population, the fraction of alive cells was calculated as OD570 concentration X Gem/OD570 concentration 0 Gem, to estimate the sensitivity of the population to the prodrug. Tests of sensitivity to antiviral drugs. Viral vectors were generated by transfection of HEK-293T cells with 10 μg of pCMVAR8.91 plasmid, 5 μg of pHCMV-G plasmid, and 10 μg of genomic plasmid SDY-dCK (described in Rossolillo et al. 2012) encoding either for the wild type sequence of the human dCK or the M36 variant. Transduction was performed on 1×10^6 HEK-293T-CD4+ cells with viral vectors. Transduced cells were selected in the presence of 0.6 μg/ml of puromycin, added 24 h after transduction. 50 to 200 individual puromycin-resistant clones were pooled and expanded obtaining the polyclonal wt-dCK cell population (wtdCK-pcP, for wt dCK polyclonal population) and the […] cell population (M36-pcP). Vectors for challenging infection in the presence of antiviral drugs were generated by transfection with 10 μg of pTopo plasmid encoding for the HIV envelope ADA (ref, plus Hamoudi 2013), 5 μg of pHCMV-G plasmid, and 10 μg of genomic plasmid SDY-Luc, which is a variant of the pSDY plasmid encoding for the firefly luciferase. These viruses were used to transduce 1×10^6 HEK-293T-CD4+-wtdCK or HEK-293T-CD4+-M36 cells. Viral infection was then monitored 48 hours after transduction. For this the medium was removed, the cells were washed twice in PBS, lysed, centrifuged, and the supernatant was used to measure luciferase activity according to the manufacturer's protocol (Promega, Fitchburg, Wis., USA) with a Glomax luminometer (Promega, Fitchburg, Wis., USA). Western blot analyses. Messa10K cell lines expressing either the wt dCK or M36, both in the context of a proviral DNA with functional LTR or with an inactivated LTR were lysed in 1×RIPA buffer, and 30, 60, 120 μg of total protein (evaluated by Bradford) for each cell type and loaded on a 12% bis-tricine gel (Invitrogen).

[3] = test system: Messa10K cells; conditions: cited from earlier work
[4] = test system: HIV-derived vectors in HEK 293T/CD4+ cells; experiment: Tests of sensitivity to antiviral drugs: infection of hdCK-transduced cells by luciferase-encoding HIV-derived vectors; format: cell-based; conditions: luciferase 48 hours after infection
Procedure: (§1) Tests of sensitivity to anticancer drugs. […] Two rows were used for each population. […] Tests of sensitivity to antiviral drugs. […] Viral infection was then monitored 48 hours after transduction. […] Western blot analyses. […] Production and purification of recombinant dCK proteins. […] Phosphorylation tests in vitro. […] ATP was 4 mM. All experiments were performed in triplicate.
Firstly HEK 293T/CD4^+ cells were transduced at a low MOI of by the vector encoding the M36 variant and selection of the successfully transduced cells was performed using puromycin. The selected cell line was then transduced with lentiviral vectors, as described in Materials and Methods, encoding the luciferase gene and luciferase levels ere measured 48 hours after infection. A comparison with the level of luciferase detected in the parallel infection of control HEK 293T/CD4^+ cells expressing as a transgene the wt dCK gene was performed and the data plotted.

[5] = target: T2, human dCK (Homo sapiens, UniProt P27707, E171K/E247K/L249M/S169N); experiment: Phosphorylation tests in vitro (NADH-based assay) with purified recombinant dCK proteins; format: biochemical; conditions: for Km compared to wt dCK / Kcat relative to wt dCK: FIG. 9A
T2 construct: His tag (C, cleaved yes); made in house; host or cells: E. coli BL21 DE3 pLysE (pET14b)
T2 sequence (P27707 whole entry S169N/E171K/E247K/L249M): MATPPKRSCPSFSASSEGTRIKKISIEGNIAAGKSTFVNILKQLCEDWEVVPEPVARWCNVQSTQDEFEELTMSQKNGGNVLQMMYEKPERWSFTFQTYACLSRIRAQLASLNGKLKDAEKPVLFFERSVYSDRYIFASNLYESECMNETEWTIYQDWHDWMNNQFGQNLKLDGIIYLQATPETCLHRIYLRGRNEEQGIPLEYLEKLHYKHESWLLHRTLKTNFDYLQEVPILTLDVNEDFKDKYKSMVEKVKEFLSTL
Procedure: (§2) Methods to qualitatively and/or quantitatively evaluate phosphorylation of a compound, such as a nucleoside compound, are known to the skilled in the art. In one example, the efficiency of phosphorylation of a substrate such as the natural substrate deoxycytidine, or the prodrugs gemcitabine and AraC, is measured for example with the purified wild-type hdCK and the mutant “M36” in typically a NADH-based assay as described in (Agarwal K C. et al. 1978 Methods Enzymol 51: 483-490). Accordingly, the enzymes are typically assayed at, for example, room temperature at a concentration of 0.45 μM for dC, 0.3 μM for Gemcitabine, and 0.3 for AraC. dC is typically used at concentrations of 5 to 50 μM, Gemcitabine at concentrations of 20 μM to 1 mM, and araC is typically used at concentrations of 20μM to 0.5 mM. ATP is used typically at 4 mM.
as §1
(§3) To characterise its biochemical properties M36 and, as a control, the wt dCK protein, were produced as recombinant, C-ter His tagged proteins in E. coli, purified and tested for their efficiency of phosphorylation in vitro. As it was the case for the G12 mutant (Rossolillo et al. 2012) also for M36 the substitutions present in the mutant led to a decrease in the Vmax of phosphorylation as function of the concentration of substrate, for both dC and for gemcitabine, but while the decrease is dramatic for the dC it is only modest for gemcitabine (FIGS. 8A-B).

[6] = test system: human dCK; experiment: as above; format: biochemical; conditions: FIG. 9B, G12 values from Rossolillo et al. 2012
Procedure: as §2, §1, §3

T1 sequence (P27707 whole entry E171K/E247K/L249M): as the sequence (P27707 whole entry S169N/E171K/E247K/L249M) above, with N169S counted along it

G12: hdCK mutant comprising three mutations, Glu171Lys, Glu247Lys and Leu249Met, described in Rossolillo et al. 2012 and WO2011/058081
ability to phosphorylate dC with respect to the wild type enzyme ([1]; substrate dC): almost complete loss of ability
efficiency of phosphorylation of gemcitabine with respect to the wild type enzyme ([1]; substrate gemcitabine): almost unaltered
efficiency of SIN vectors versus wt vectors [2]: more efficient
sensitization to gemcitabine ([3]; cells originally resistant to gemcitabine (Messa10K)): 300 fold
sensitization effect relative to the one induced with the wild-type enzyme ([3]; gemcitabine, Messa10K): 60 times

M36: mutant human deoxycytidine kinase (hdCK) with mutations S169N, E171K, E247K and L249M; delivered as lentiviral transgene or recombinant protein
lower infectivity versus cells expressing wt dCK ([4]; 3TC, FIG. 6): ~2 fold
resistance to infection versus cells expressing wt dCK ([4]; ddC, FIG. 5): no significant increase in resistance
sensitisation to AraC with respect to control cells expressing exogenous wt dCK ([2]; AraC, FIG. 7B): strong sensitisation
sensitisation phenotype to gemcitabine compared to G12 ([2]; Messa10K, FIG. 1 and 2): further improved sensitisation phenotype
sensitization to gemcitabine ([2]; cells originally resistant to gemcitabine): 900 fold
sensitization of cells to cytarabine (AraC), factor ([2]; cytarabine (AraC)): 10,000
sensitisation of Messa 10K cells to fludarabine ([2]; fludarabine, FIG. 7A): no significant sensitisation
efficiency of SIN vectors versus wt vectors [2]: more efficient
plateau of maximum mortality ([2]; SIN vector (inactivated LTR)): 80%
plateau of maximum mortality ([2]; wt LTR vector): 60%
Km compared to wt dCK ([5]; natural substrate dC): reversed
reduction of the Vmax of phosphorylation compared to wt dCK ([5]; substrate AraC, FIG. 8C): very modest reduction
Kcat relative to wt dCK ([5]; substrate AraC): approximately 50%
Km compared to wt dCK ([5]; substrate AraC): increased
decrease in the Vmax of phosphorylation compared to wt dCK ([5]; substrate dC, FIG. 8A): dramatic
Kcat relative to wt dCK ([5]; substrate dC): approximately 50%
decrease in the Vmax of phosphorylation compared to wt dCK ([5]; substrate gemcitabine, FIG. 8B): only modest
Kcat relative to wt dCK ([5]; substrate gemcitabine): approximately 50%
Km compared to wt dCK ([5]; substrate gemcitabine): increased
increase in Kcat M36 vs G12, factor ([6]; natural substrate dC): 9.5
increase in Km M36 vs G12, factor ([6]; natural substrate dC): 3.5
ratio of Kcat M36 vs G12 ([6]; substrate gemcitabine): 1
ratio of Km M36 vs G12 ([6]; substrate gemcitabine): 1
